Results reported in patent US12281147.

Key:
[1] = target: human IL-21R (human) (UniProt Q9HBE5); test: AlphaSeq yeast mating assay, unbuffered media
[2] = target: human IL-21R (human) (UniProt Q9HBE5); test: AlphaSeq yeast mating assay, pH 6 media
[3] = target: human IL-21R (human) (UniProt Q9HBE5); test: AlphaSeq yeast mating assay, pH 7 media
[4] = target: human IL-21R (human) (UniProt Q9HBE5); test: AlphaSeq yeast mating assay, pH 5 media
[5] = target: wild-type human IL-21R (human) (UniProt Q9HBE5); test: AlphaSeq yeast mating assay, unbuffered media
[6] = target: wild-type human IL-21R (human) (UniProt Q9HBE5); test: AlphaSeq yeast mating assay, pH 5 media
[7] = target: human interleukin 21 receptor (IL-21R) (human) (UniProt Q9HBE5); test: AlphaSeq yeast mating, unbuffered media

## IL-21_A112P (from UniProt Q9HBE4 32-152) (ligand)
[1]
  Kd: 1 µM
[2]
  Kd: 0.021 µM
[3]
  Kd: 0.08 µM
[4]
  Kd: 0.058 µM

## IL-21_A112R (from UniProt Q9HBE4 32-152) (ligand)
[5]
  Kd: 7.9 µM
[6]
  Kd: 0.039 µM

## IL-21_D33T (from UniProt Q9HBE4 32-152) (ligand)
[7]
  Kd: 15 µM

## IL-21_D44A (from UniProt Q9HBE4 32-152) (ligand)
[1]
  Kd: 240 µM
[2]
  Kd: 0.052 µM
[3]
  Kd: 0.24 µM
[4]
  Kd: 0.14 µM

## IL-21_D66R (from UniProt Q9HBE4 32-152) (ligand)
[1]
  Kd: 2.7 µM
[4]
  Kd: 0.025 µM

## IL-21_E68K (from UniProt Q9HBE4 32-152) (ligand)
[5]
  Kd: 3.3 µM
[6]
  Kd: 0.027 µM

## IL-21_E72T (from UniProt Q9HBE4 32-152) (ligand)
[1]
  Kd: 2.8 µM
[2]
  Kd: 0.027 µM
[3]
  Kd: 0.057 µM

## IL-21_E93T (from UniProt Q9HBE4 32-152) (ligand)
[1]
  Kd: 2.4 µM
[4]
  Kd: 0.046 µM

## IL-21_F60H (from UniProt Q9HBE4 32-152) (ligand)
[1]
  Kd: 2.4 µM
[2]
  Kd: 0.015 µM
[3]
  Kd: 0.035 µM
[4]
  Kd: 0.062 µM

## IL-21_F76E (from UniProt Q9HBE4 32-152) (ligand)
[1]
  Kd: 270 µM
[2]
  Kd: 6.9 µM
[4]
  Kd: 100 µM

## IL-21_F76T (from UniProt Q9HBE4 32-152) (ligand)
[1]
  Kd: 340 µM
[4]
  Kd: 75 µM

## IL-21_F79D (from UniProt Q9HBE4 32-152) (ligand)
[1]
  Kd: 170 µM
[2]
  Kd: 2.7 µM
[4]
  Kd: 52 µM

## IL-21_F79E (from UniProt Q9HBE4 32-152) (ligand)
[1]
  Kd: 110 µM
[2]
  Kd: 7 µM
[3]
  Kd: 6.9 µM
[4]
  Kd: 59 µM

## IL-21_F79Y (from UniProt Q9HBE4 32-152) (ligand)
[1]
  Kd: 330 µM
[2]
  Kd: 2 µM
[3]
  Kd: 0.53 µM
[4]
  Kd: 72 µM

## IL-21_I37E (from UniProt Q9HBE4 32-152) (ligand)
[1]
  Kd: 110 µM
[2]
  Kd: 0.55 µM
[4]
  Kd: 1.5 µM

## IL-21_I37G (from UniProt Q9HBE4 32-152) (ligand)
[1]
  Kd: 170 µM
[4]
  Kd: 82 µM

## IL-21_I37K (from UniProt Q9HBE4 32-152) (ligand)
[1]
  Kd: 95 µM
[2]
  Kd: 0.19 µM
[3]
  Kd: 0.12 µM
[4]
  Kd: 3.3 µM

## IL-21_I37S (from UniProt Q9HBE4 32-152) (ligand)
[1]
  Kd: 240 µM
[2]
  Kd: 0.53 µM
[3]
  Kd: 0.32 µM
[4]
  Kd: 16 µM

## IL-21_I37V (from UniProt Q9HBE4 32-152) (ligand)
[5]
  Kd: 3.2 µM
[6]
  Kd: 0.058 µM

## IL-21_I43L (from UniProt Q9HBE4 32-152) (ligand)
[1]
  Kd: 1.5 µM
[2]
  Kd: 0.02 µM
[4]
  Kd: 0.058 µM

## IL-21_I45G (from UniProt Q9HBE4 32-152) (ligand)
[1]
  Kd: 330 µM
[2]
  Kd: 5 µM
[3]
  Kd: 1.2 µM

## IL-21_I95H (from UniProt Q9HBE4 32-152) (ligand)
[1]
  Kd: 150 µM
[2]
  Kd: 2 µM
[4]
  Kd: 53 µM

## IL-21_I95K (from UniProt Q9HBE4 32-152) (ligand)
[1]
  Kd: 260 µM
[3]
  Kd: 0.24 µM

## IL-21_I96D (from UniProt Q9HBE4 32-152) (ligand)
[1]
  Kd: 580 µM
[2]
  Kd: 60 µM
[3]
  Kd: 35 µM

## IL-21_I96P (from UniProt Q9HBE4 32-152) (ligand)
[1]
  Kd: 270 µM
[2]
  Kd: 5.7 µM
[3]
  Kd: 3 µM

## IL-21_K106N (from UniProt Q9HBE4 32-152) (ligand)
[1]
  Kd: 1 µM
[2]
  Kd: 0.55 µM
[4]
  Kd: 10 µM

## IL-21_K131M (from UniProt Q9HBE4 32-152) (ligand)
[7]
  Kd: 27 µM

## IL-21_L42H (from UniProt Q9HBE4 32-152) (ligand)
[1]
  Kd: 550 µM
[2]
  Kd: 67 µM
[3]
  Kd: 5.4 µM

## IL-21_L42K (from UniProt Q9HBE4 32-152) (ligand)
[1]
  Kd: 250 µM
[3]
  Kd: 12 µM

## IL-21_L49E (from UniProt Q9HBE4 32-152) (ligand)
[1]
  Kd: 540 µM
[4]
  Kd: 600 µM

## IL-21_L56F (from UniProt Q9HBE4 32-152) (ligand)
[1]
  Kd: 240 µM
[3]
  Kd: 0.24 µM
[4]
  Kd: 54 µM

## IL-21_L56T (from UniProt Q9HBE4 32-152) (ligand)
[1]
  Kd: 100 µM
[2]
  Kd: 6.9 µM

## IL-21_L103E (from UniProt Q9HBE4 32-152) (ligand)
[1]
  Kd: 590 µM
[2]
  Kd: 92 µM
[4]
  Kd: 240 µM

## IL-21_M39D (from UniProt Q9HBE4 32-152) (ligand)
[1]
  Kd: 800 µM
[2]
  Kd: 76 µM

## IL-21_M39E (from UniProt Q9HBE4 32-152) (ligand)
[1]
  Kd: 330 µM
[4]
  Kd: 150 µM

## IL-21_M39G (from UniProt Q9HBE4 32-152) (ligand)
[1]
  Kd: 240 µM
[2]
  Kd: 31 µM
[3]
  Kd: 7.8 µM
[4]
  Kd: 150 µM

## IL-21_M39I (from UniProt Q9HBE4 32-152) (ligand)
[1]
  Kd: 2.5 µM
[3]
  Kd: 0.035 µM

## IL-21_M39R (from UniProt Q9HBE4 32-152) (ligand)
[1]
  Kd: 340 µM
[2]
  Kd: 170 µM

## IL-21_N51V (from UniProt Q9HBE4 32-152) (ligand)
[1]
  Kd: 2.5 µM
[2]
  Kd: 0.062 µM

## IL-21_P62S (from UniProt Q9HBE4 32-152) (ligand)
[1]
  Kd: 2.8 µM
[3]
  Kd: 0.027 µM
[4]
  Kd: 0.1 µM

## IL-21_P62V (from UniProt Q9HBE4 32-152) (ligand)
[1]
  Kd: 110 µM
[3]
  Kd: 0.12 µM
[4]
  Kd: 11 µM

## IL-21_P108D (from UniProt Q9HBE4 32-152) (ligand)
[1]
  Kd: 1.4 µM
[3]
  Kd: 0.24 µM

## IL-21_P108E (from UniProt Q9HBE4 32-152) (ligand)
[1]
  Kd: 2.8 µM
[3]
  Kd: 0.55 µM

## IL-21_Q32K (from UniProt Q9HBE4 33-152) (ligand)
[1]
  Kd: 2.7 µM
[2]
  Kd: 0.012 µM
[3]
  Kd: 0.028 µM
[4]
  Kd: 0.027 µM

## IL-21_Q80D (from UniProt Q9HBE4 32-152) (ligand)
[1]
  Kd: 660 µM
[4]
  Kd: 580 µM

## IL-21_Q150D (from UniProt Q9HBE4 32-152) (ligand)
[1]
  Kd: 0.96 µM
[2]
  Kd: 0.021 µM
[3]
  Kd: 0.059 µM
[4]
  Kd: 0.056 µM

## IL-21_R34P (from UniProt Q9HBE4 32-152) (ligand)
[1]
  Kd: 2.7 µM
[4]
  Kd: 1.4 µM

## IL-21_R34Q (from UniProt Q9HBE4 32-152) (ligand)
[1]
  Kd: 1.1 µM
[2]
  Kd: 0.035 µM
[3]
  Kd: 0.12 µM
[4]
  Kd: 0.2 µM

## IL-21_R38E (from UniProt Q9HBE4 32-152) (ligand)
[1]
  Kd: 110 µM
[2]
  Kd: 8.4 µM

## IL-21_R38K (from UniProt Q9HBE4 32-152) (ligand)
[1]
  Kd: 250 µM
[3]
  Kd: 7 µM

## IL-21_R38Q (from UniProt Q9HBE4 32-152) (ligand)
[1]
  Kd: 270 µM
[2]
  Kd: 12 µM

## IL-21_R105A (from UniProt Q9HBE4 32-152) (ligand)
[1]
  Kd: 270 µM
[3]
  Kd: 20 µM
[4]
  Kd: 260 µM

## IL-21_S74H (from UniProt Q9HBE4 32-152) (ligand)
[1]
  Kd: 85 µM
[2]
  Kd: 0.026 µM
[4]
  Kd: 0.17 µM

## IL-21_S77R (from UniProt Q9HBE4 32-152) (ligand)
[7]
  Kd: 46 µM

## IL-21_S109M (from UniProt Q9HBE4 32-152) (ligand)
[1]
  Kd: 2.5 µM
[2]
  Kd: 0.43 µM
[3]
  Kd: 0.081 µM

## IL-21_S142I (from UniProt Q9HBE4 32-152) (ligand)
[1]
  Kd: 2.6 µM
[3]
  Kd: 0.041 µM

## IL-21_V46D (from UniProt Q9HBE4 32-152) (ligand)
[1]
  Kd: 270 µM
[2]
  Kd: 12 µM

## IL-21_V46K (from UniProt Q9HBE4 32-152) (ligand)
[1]
  Kd: 730 µM
[3]
  Kd: 28 µM
[4]
  Kd: 340 µM

## IL-21_V46Q (from UniProt Q9HBE4 32-152) (ligand)
[1]
  Kd: 1000 µM
[2]
  Kd: 260 µM
[3]
  Kd: 71 µM

## IL-21_V46T (from UniProt Q9HBE4 32-152) (ligand)
[1]
  Kd: 640 µM
[3]
  Kd: 0.053 µM

## IL-21_V53A (from UniProt Q9HBE4 32-152) (ligand)
[1]
  Kd: 1.1 µM
[3]
  Kd: 0.056 µM

## IL-21_V53E (from UniProt Q9HBE4 32-152) (ligand)
[7]
  Kd: 31 µM

## IL-21_V53H (from UniProt Q9HBE4 32-152) (ligand)
[7]
  Kd: 46 µM

## IL-21_V53N (from UniProt Q9HBE4 32-152) (ligand)
[1]
  Kd: 560 µM
[3]
  Kd: 0.99 µM

## IL-21_V53P (from UniProt Q9HBE4 32-152) (ligand)
[1]
  Kd: 270 µM
[2]
  Kd: 27 µM
[4]
  Kd: 270 µM

## IL-21_V53S (from UniProt Q9HBE4 32-152) (ligand)
[1]
  Kd: 1.4 µM
[2]
  Kd: 0.02 µM
[3]
  Kd: 0.056 µM
[4]
  Kd: 0.047 µM

## IL-21_V57L (from UniProt Q9HBE4 32-152) (ligand)
[1]
  Kd: 2.7 µM
[3]
  Kd: 0.088 µM

## IL-21_V98K (from UniProt Q9HBE4 32-152) (ligand)
[1]
  Kd: 150 µM
[2]
  Kd: 0.094 µM
[3]
  Kd: 0.25 µM

## IL-21_W73G (from UniProt Q9HBE4 32-152) (ligand)
[1]
  Kd: 150 µM
[3]
  Kd: 0.33 µM
[4]
  Kd: 57 µM

## IL-21_W73K (from UniProt Q9HBE4 32-152) (ligand)
[1]
  Kd: 890 µM
[2]
  Kd: 30 µM
[3]
  Kd: 10 µM

## IL-21_Y52H (from UniProt Q9HBE4 32-152) (ligand)
[1]
  Kd: 69 µM
[3]
  Kd: 0.11 µM
[4]
  Kd: 4.4 µM

## IL-21_Y52K (from UniProt Q9HBE4 32-152) (ligand)
[1]
  Kd: 340 µM
[2]
  Kd: 2.8 µM

## IL-21_Y52N (from UniProt Q9HBE4 32-152) (ligand)
[1]
  Kd: 110 µM
[3]
  Kd: 0.24 µM
